Results: patent US20190241648A1 (STATEN BIOTECHNOLOGY B V, published 2019)
Ends that are not written are not given here.

Experiments:
Test in all cases: cyclic peptide substitution array
ApoC3 peptide D68M = biological target: T1, ApoC3 peptide D68M (human, cyclic (thioether))
T1 peptide: DKFSEFWDLMPEV
Text: (§1) S62 and D68 of mature huApoC3 were also highly conserved; substitution of S62 by A or V, and substitution of D68 by E or P, caused decrease of spot intensities by ˜60% or higher. […] Amino acid F64 was completely variable.
(§2) Pre: staining of one of the ApoC3 peptide microarrays was done with the secondary antibody goat anti-human IgG (Fe) DyLight680 (1:5000) and control antibody mouse monoclonal anti-HA (12CA5) DyLight800 (1:2000) to investigate background interactions of the secondary antibody with the antigen-derived peptides that could interfere with the main assays. Subsequent incubation of other ApoC3 peptide microarrays with antibody samples was followed by staining with secondary and control antibodies as well as read-out at scanning intensities of 7/7 (red/green). The additional HA peptides framing the peptide arrays were stained as internal quality control to confirm the assay quality and the peptide microarray integrity.

ApoC3 peptide V71C = biological target: T2, ApoC3 peptide V71C (human, thioether (positions not given here); also: cyclic (thioether), ring places not given here)
T2 peptide: DKFSEFWDLDPEC
Text: as §1, §2

ApoC3 peptide V71S = biological target: T3, ApoC3 peptide V71S (human, not fully specified; cyclic (thioether))
T3 peptide: DKFSEFWDLDPES
Text: as §1, §2

[1] = biological target: T4, wild-type ApoC3 peptide DKFSEFWDLDPEV (human, cyclic (thioether))
T4 construct: 13 aa cyclic constrained peptide
T4 peptide: DKFSEFWDLDPEV
Text: as §1, §2

ApoC3 peptide V71Y = biological target: T5, ApoC3 peptide V71Y (human, not fully specified; cyclic (thioether))
T5 peptide: DKFSEFWDLDPEY
Text: as §1, §2

ApoC3 peptide F64N = biological target: T6, ApoC3 peptide F64N (human, thioether (positions not given here); not fully specified (bridges); also: cyclic (thioether), positions not given here)
T6 peptide: DKFSENWDLDPEV
Text: as §1, §2

ApoC3 peptide V71H = biological target: T7, ApoC3 peptide V71H (human, thioether (positions not given here); also: cyclic (thioether), ring places not given here)
T7 peptide: DKFSEFWDLDPEH
Text: as §1, §2

ApoC3 peptide W65E = biological target: T8, ApoC3 peptide W65E (human, not fully specified; cyclic (thioether))
T8 peptide: DKFSEFEDLDPEV
Text: as §1, §2

ApoC3 peptide P69R = biological target: T9, ApoC3 peptide P69R (human, not fully specified; cyclic (thioether))
T9 peptide: DKFSEFWDLDREV
Text: as §1, §2

ApoC3 peptide S62F = biological target: T10, ApoC3 peptide S62F (human, not fully specified; cyclic (thioether))
T10 peptide: DKFFEFWDLDPEV
Text: as §1, §2

ApoC3 peptide F61Y = biological target: T11, ApoC3 peptide F61Y (human, cyclic (thioether))
T11 peptide: DKYSEFWDLDPEV
Text: as §1, §2

ApoC3 peptide P69E = biological target: T12, ApoC3 peptide P69E (human, not fully specified; cyclic (thioether))
T12 peptide: DKFSEFWDLDEEV
Text: as §1, §2

ApoC3 peptide S62N = biological target: T13, ApoC3 peptide S62N (human, thioether (positions not given here); also: cyclic (thioether), ring places not given here)
T13 peptide: DKFNEFWDLDPEV
Text: as §1, §2

ApoC3 peptide W65H = biological target: T14, ApoC3 peptide W65H (human, cyclic (thioether))
T14 peptide: DKFSEFHDLDPEV
Text: as §1, §2

ApoC3 peptide K60I = biological target: T15, ApoC3 peptide K60I (human, cyclic (thioether))
T15 peptide: DIFSEFWDLDPEV
Text: as §1, §2

ApoC3 peptide E63K = biological target: T16, ApoC3 peptide E63K (human, cyclic (thioether))
T16 peptide: DKFSKFWDLDPEV
Text: as §1, §2

ApoC3 peptide L67S = biological target: T17, ApoC3 peptide L67S (human, thioether (positions not given here); not fully specified (bridges); also: thioether between a C-terminal Cys side chain and a modified N-terminus, the Cys is not in the chain)
T17 peptide: DKFSEFWDSDPEV
Text: as §1, §2

ApoC3 peptide K60C = biological target: T18, ApoC3 peptide K60C (human, thioether (positions not given here); not fully specified (bridges); also: cyclic (thioether), positions not given here)
T18 peptide: DCFSEFWDLDPEV
Text: as §1, §2

ApoC3 peptide F61D = biological target: T19, ApoC3 peptide F61D (human, cyclic (thioether))
T19 peptide: DKDSEFWDLDPEV
Text: as §1, §2

ApoC3 peptide D66E = biological target: T20, ApoC3 peptide D66E (human, not fully specified; cyclic (thioether))
T20 peptide: DKFSEFWELDPEV
Text: as §1, §2

ApoC3 peptide F64L = biological target: T21, ApoC3 peptide F64L (human, thioether (positions not given here); not fully specified (bridges); also: cyclic (thioether), positions not given here)
T21 peptide: DKFSELWDLDPEV
Text: as §1, §2

ApoC3 peptide L67Q = biological target: T22, ApoC3 peptide L67Q (human, thioether (positions not given here); not fully specified (bridges); also: thioether between a C-terminal Cys side chain and a modified N-terminus, the Cys is not in the chain)
T22 peptide: DKFSEFWDQDPEV
Text: as §1, §2

ApoC3 peptide W65G = biological target: T23, ApoC3 peptide W65G (human, not fully specified; cyclic (thioether))
T23 peptide: DKFSEFGDLDPEV
Text: as §1, §2

ApoC3 peptide V71N = biological target: T24, ApoC3 peptide V71N (human, thioether (positions not given here); also: cyclic (thioether), ring places not given here)
T24 peptide: DKFSEFWDLDPEN
Text: as §1, §2

ApoC3 peptide D68R = biological target: T25, ApoC3 peptide D68R (human, cyclic (thioether))
T25 peptide: DKFSEFWDLRPEV
Text: as §1, §2

ApoC3 peptide D59F = biological target: T26, ApoC3 peptide D59F (human, thioether (positions not given here); not fully specified (C-terminus, bridges))
T26 peptide: FKFSEFWDLDPEV
Text: as §1, §2

ApoC3 peptide K60A = biological target: T27, ApoC3 peptide K60A (human, thioether (positions not given here); not fully specified (bridges); also: cyclic (thioether), positions not given here)
T27 peptide: DAFSEFWDLDPEV
Text: as §1, §2

ApoC3 peptide F61Q = biological target: T28, ApoC3 peptide F61Q (human, cyclic (thioether))
T28 peptide: DKQSEFWDLDPEV
Text: as §1, §2

ApoC3 peptide F61P = biological target: T29, ApoC3 peptide F61P (human, cyclic (thioether))
T29 peptide: DKPSEFWDLDPEV
Text: as §1, §2

ApoC3 peptide D59A = biological target: T30, ApoC3 peptide D59A (human, thioether (positions not given here); not fully specified (C-terminus, bridges))
T30 peptide: AKFSEFWDLDPEV
Text: as §1, §2

B1: Llama antibody 5E5 (antibody, V domains shown)
VH: QLQLVESGGGLVQPGGSLRLSCAASGFTFGTYSMRWVRQVPRKALEWVSSISTDGGGTAYRDSVKGRFTISRDNAKNTLYLQMNNLKPEDTAIYYCVIAGYSDWGQGTQVTVSS
VL: ATMLTQSPGSLSVVPGESASISCKTSQGLVHSDGKTYFYWFLQKPGQSPQQLIYQVSNRASGVPDRFTGSGSGTDFTLKISGVKAEDAGVYYCAQGTYYPHTFGSGTRLEIK
notes: detected with goat anti-human IgG (Fc); also called mAb 5E5
ApoC3 peptide D68M
  % of binding to wild-type peptide: 2.82%
ApoC3 peptide V71C
  % of binding to wild-type peptide: 56.9%
ApoC3 peptide V71S
  % of binding to wild-type peptide: 74.1%
[1]
  % of binding to wild-type peptide: 100%
ApoC3 peptide V71Y
  % of binding to wild-type peptide: 87.4%
ApoC3 peptide F64N
  % of binding to wild-type peptide: 234%
ApoC3 peptide V71H
  % of binding to wild-type peptide: 72.8%
ApoC3 peptide W65E
  % of binding to wild-type peptide: 0%
ApoC3 peptide P69R
  % of binding to wild-type peptide: 20.1%
ApoC3 peptide S62F
  % of binding to wild-type peptide: 1.25%
ApoC3 peptide F61Y
  % of binding to wild-type peptide: 126%
ApoC3 peptide P69E
  % of binding to wild-type peptide: 43%
ApoC3 peptide S62N
  % of binding to wild-type peptide: 0%
ApoC3 peptide W65H
  % of binding to wild-type peptide: 0%
ApoC3 peptide K60I
  % of binding to wild-type peptide: 106%
ApoC3 peptide E63K
  % of binding to wild-type peptide: 19.1%
ApoC3 peptide L67S
  % of binding to wild-type peptide: 36.5%
ApoC3 peptide K60C
  % of binding to wild-type peptide: 67.2%
ApoC3 peptide F61D
  % of binding to wild-type peptide: 16%
ApoC3 peptide D66E
  % of binding to wild-type peptide: 2.16%
ApoC3 peptide F64L
  % of binding to wild-type peptide: 118%
ApoC3 peptide L67Q
  % of binding to wild-type peptide: 3.99%
ApoC3 peptide W65G
  % of binding to wild-type peptide: 0%
ApoC3 peptide V71N
  % of binding to wild-type peptide: 86.6%
ApoC3 peptide D68R
  % of binding to wild-type peptide: 0%
ApoC3 peptide D59F
  % of binding to wild-type peptide: 31.6%
ApoC3 peptide K60A
  % of binding to wild-type peptide: 143%
ApoC3 peptide F61Q
  % of binding to wild-type peptide: 75.6%
ApoC3 peptide F61P
  % of binding to wild-type peptide: 52.7%
ApoC3 peptide D59A
  % of binding to wild-type peptide: 44.4%
